According to patent US12104181B2, “Compositions and methods for treating viral infections targeting TRIM7” (THE BOARD OF REGENTS OF THE UNIVERSITY OF TEXAS SYSTEM, priority 2021, dated 2024):

B1: TRIM24: human RING type E3 ligase expressed from lentiviral vector (protein, UniProt O15164 1-1050, looked up)
Transcription intermediary …: MEVAVEKAVAAAAAASAAASGGPSAAPSGENEAESRQGPDSERGGEAARLNLLDTCAVCHQNIQSRAPKLLPCLHSFCQRCLPAPQRYLMLPAPMLGSAETPPPVPAPGSPVSGSSPFATQVGVIRCPVCSQECAERHIIDNFFVKDTTEVPSSTVEKSNQVCTSCEDNAEANGFCVECVEWLCKTCIRAHQRVKFTKDHTVRQKEEVSPEAVGVTSQRPVFCPFHKKEQLKLYCETCDKLTCRDCQLLEHKEHRYQFIEEAFQNQKVIIDTLITKLMEKTKYIKFTGNQIQNRIIEVNQNQKQVEQDIKVAIFTLMVEINKKGKALLHQLESLAKDHRMKLMQQQQEVAGLSKQLEHVMHFSKWAVSSGSSTALLYSKRLITYRLRHLLRARCDASPVTNNTIQFHCDPSFWAQNIINLGSLVIEDKESQPQMPKQNPVVEQNSQPPSGLSSNQLSKFPTQISLAQLRLQHMQQQVMAQRQQVQRRPAPVGLPNPRMQGPIQQPSISHQQPPPRLINFQNHSPKPNGPVLPPHPQQLRYPPNQNIPRQAIKPNPLQMAFLAQQAIKQWQISSGQGTPSTTNSTSSTPSSPTITSAAGYDGKAFGSPMIDLSSPVGGSYNLPSLPDIDCSSTIMLDNIVRKDTNIDHGQPRPPSNRTVQSPNSSVPSPGLAGPVTMTSVHPPIRSPSASSVGSRGSSGSSSKPAGADSTHKVPVVMLEPIRIKQENSGPPENYDFPVVIVKQESDEESRPQNANYPRSILTSLLLNSSQSSTSEETVLRSDAPDSTGDQPGLHQDNSSNGKSEWLDPSQKSPLHVGETRKEDDPNEDWCAVCQNGGELLCCEKCPKVFHLSCHVPTLTNFPSGEWICTFCRDLSKPEVEYDCDAPSHNSEKKKTEGLVKLTPIDKRKCERLLLFLYCHEMSLAFQDPVPLTVPDYYKIIKNPMDLSTIKKRLQEDYSMYSKPEDFVADFRLIFQNCAEFNEPDSEVANAGIKLENYFEELLKNLYPEKRFPKPEFRNESEDNKFSDDSDDDFVQPRKKRLKSIEERQLLK
B2: TRIM22: human RING type E3 ligase expressed from lentiviral vector (protein, UniProt Q8IYM9 1-498, looked up)
E3 ubiquitin-protein ligase …: MDFSVKVDIEKEVTCPICLELLTEPLSLDCGHSFCQACITAKIKESVIISRGESSCPVCQTRFQPGNLRPNRHLANIVERVKEVKMSPQEGQKRDVCEHHGKKLQIFCKEDGKVICWVCELSQEHQGHQTFRINEVVKECQEKLQVALQRLIKEDQEAEKLEDDIRQERTAWKNYIQIERQKILKGFNEMRVILDNEEQRELQKLEEGEVNVLDNLAAATDQLVQQRQDASTLISDLQRRLRGSSVEMLQDVIDVMKRSESWTLKKPKSVSKKLKSVFRVPDLSGMLQVLKELTDVQYYWVDVMLNPGSATSNVAISVDQRQVKTVRTCTFKNSNPCDFSAFGVFGCQYFSSGKYYWEVDVSGKIAWILGVHSKISSLNKRKSSGFAFDPSVNYSKVYSRYRPQYGYWVIGLQNTCEYNAFEDSSSSDPKVLTLFMAVPPCRIGVFLDYEAGIVSFFNVTNHGALIYKFSGCRFSRPAYPYFNPWNCLVPMTVCPPSS
B3: TRIM23: human RING type E3 ligase expressed from lentiviral vector (protein, UniProt P36406 1-574, looked up)
E3 ubiquitin-protein ligase …: MATLVVNKLGAGVDSGRQGSRGTAVVKVLECGVCEDVFSLQGDKVPRLLLCGHTVCHDCLTRLPLHGRAIRCPFDRQVTDLGDSGVWGLKKNFALLELLERLQNGPIGQYGAAEESIGISGESIIRCDEDEAHLASVYCTVCATHLCSECSQVTHSTKTLAKHRRVPLADKPHEKTMCSQHQVHAIEFVCLEEGCQTSPLMCCVCKEYGKHQGHKHSVLEPEANQIRASILDMAHCIRTFTEEISDYSRKLVGIVQHIEGGEQIVEDGIGMAHTEHVPGTAENARSCIRAYFYDLHETLCRQEEMALSVVDAHVREKLIWLRQQQEDMTILLSEVSAACLHCEKTLQQDDCRVVLAKQEITRLLETLQKQQQQFTEVADHIQLDASIPVTFTKDNRVHIGPKMEIRVVTLGLDGAGKTTILFKLKQDEFMQPIPTIGFNVETVEYKNLKFTIWDVGGKHKLRPLWKHYYLNTQAVVFVVDSSHRDRISEAHSELAKLLTEKELRDALLLIFANKQDVAGALSVEEITELLSLHKLCCGRSWYIQGCDARSGMGLYEGLDWLSRQLVAAGVLDVA

test system: coxsackievirus B3 (CVB3-GFP); assay type: cell-based; conditions: HeLa cells, GFP-positive cells within RFP-positive gate, replicate R1

Molecule	Percent Infected R1
B1	69.5%
B2	49.4%
B3	61.5%

same assay, conditions: HeLa cells, replicate R1

Molecule	Z score R1
B1	−0.243
B2	−0.499
B3	−0.345
